According to PMC3414502 (2012):

Target: PLCβ2 (Homo sapiens, UniProt Q00722)
Experiment: fluorescence titration

Chain of PLCβ2 (Q00722 whole entry): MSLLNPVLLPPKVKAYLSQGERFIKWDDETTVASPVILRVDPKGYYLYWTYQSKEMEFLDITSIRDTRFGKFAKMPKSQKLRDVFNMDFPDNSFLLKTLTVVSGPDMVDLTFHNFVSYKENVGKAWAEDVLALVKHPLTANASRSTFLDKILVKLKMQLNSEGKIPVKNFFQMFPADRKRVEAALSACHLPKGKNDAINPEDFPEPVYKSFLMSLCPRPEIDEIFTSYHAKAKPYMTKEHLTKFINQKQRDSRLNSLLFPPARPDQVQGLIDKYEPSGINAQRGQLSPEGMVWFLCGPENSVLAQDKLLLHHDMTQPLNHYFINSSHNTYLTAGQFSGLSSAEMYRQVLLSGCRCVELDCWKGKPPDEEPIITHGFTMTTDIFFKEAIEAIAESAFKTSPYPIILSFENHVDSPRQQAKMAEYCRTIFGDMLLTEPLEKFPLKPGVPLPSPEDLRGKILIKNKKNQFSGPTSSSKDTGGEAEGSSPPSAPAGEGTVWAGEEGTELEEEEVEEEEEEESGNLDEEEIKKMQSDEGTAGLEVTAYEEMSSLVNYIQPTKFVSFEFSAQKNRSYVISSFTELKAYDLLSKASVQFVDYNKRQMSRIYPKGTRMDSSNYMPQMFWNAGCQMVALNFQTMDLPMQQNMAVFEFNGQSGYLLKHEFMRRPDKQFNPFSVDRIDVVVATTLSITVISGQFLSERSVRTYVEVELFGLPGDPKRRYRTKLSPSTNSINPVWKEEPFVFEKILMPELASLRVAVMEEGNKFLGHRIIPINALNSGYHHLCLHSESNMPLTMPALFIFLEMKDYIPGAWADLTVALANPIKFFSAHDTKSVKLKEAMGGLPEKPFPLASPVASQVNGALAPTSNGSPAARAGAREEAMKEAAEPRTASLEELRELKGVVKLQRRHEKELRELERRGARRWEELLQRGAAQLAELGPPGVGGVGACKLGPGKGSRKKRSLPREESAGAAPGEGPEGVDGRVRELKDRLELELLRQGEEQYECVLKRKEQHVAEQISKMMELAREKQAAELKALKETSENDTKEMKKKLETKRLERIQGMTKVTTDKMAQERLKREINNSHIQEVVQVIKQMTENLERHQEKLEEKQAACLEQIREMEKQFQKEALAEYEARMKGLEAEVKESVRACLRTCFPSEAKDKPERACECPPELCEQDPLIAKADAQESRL

Kd: 0.9 nM
B1: Gαq (activated) (protein)
chain: MTLESIMACCLSEEAKEARRINDEIERQLRRDKRDARRELKLLLLGTGESGKSTFIKQMRIIHGSGYSDEDKRGFTKLVYQNIFTAMQAMIRAMDTLKIPYKYEHNKAHAQLVREVDVEKVSAFENPYVDAIKSLWNDPGIQECYDRRREYQLSDSTKYYLNDLDRVADPSYLPTQQDVLRVRVPTTGIIEYPFDLQSVIFRMVDVGGQRSERRKWIHCFENVTSIMFLVALSEYDQVLVESDNENRMEESKALFRTIITYPWFQNSSVILFLNKKDLLEEKIMYSHLVDYFPEYDGPQRDAQAAREFILKMFVDLNPDSDKIIYSHFTCATDTENIRFVFAAVKDTILQLNLKEYNLV
modifications: activated Gαq, with γ-synuclein
